Assay results taken from article PMC8854693, “Development and characterization of functional antibodies targeting NMDA receptors” (Nature Communications, 2022).

B1: IgG2, mouse monoclonal antibody against the GluN1-GluN2B NMDA receptor (antibody, V domains shown)
VH: DVKLQESGGGLVQPGGSLKLSCAASGFTFSSYTMSWVRQTPEKRLEWVAYISNGGGGTYYPDTVKGRFTISRDNAKNTLYLQMNSLKEDTAMYYCARPSRGGSSYWYFDVWGAGTTVTVSS
VL: DIQMTQSPSSLSASLGGKVTITCKASQDINKYIAWYQHKPGKGPRLLIHYTSSLQPGIPSRFSGSGSGRDYSFSISNLEPEDIATYYCLQYDNLYTFGGGTKLEIK
notes: the Fab part of the heavy chain is in the crystal structure of Fab2 (PDB 7TE4) and in the cryo-EM models; the light chain is in the crystal structure of Fab2 (PDB 7TE4) and in the cryo-EM models; mouse immunoglobulin-gamma; raised against purified intact rat GluN1a-GluN2B NMDAR; source: hybridoma cell culture supernatant, purified (rProtein-A Sepharose)
B2: IgG5, mouse monoclonal antibody against the GluN1-GluN2B NMDA receptor (antibody, V domains shown)
VH: DVKLQESGGGSVKLGGSLKLSCVVSGFTFSTYYMSWVRQTPEKRLELVAVINSNGGNTYYPDNVKGRFTISRDNAENTLYLQMSSLKSEDTALYYCARRDYDGFAMDYWGQGTSVTVSS
VL: DIQLTQSPASLAVSLGQRATISCRASQSVSTSRYSYMHWYQHKPGQPPKLLIKYASNLESGVPARFSGSGSGTDFTLNIHPVEEEDTATYYCQHSWENPYTFGGGTKLEIK
notes: the Fab part of the heavy chain is in the crystal structure of GluN1b-GluN2B ATD-Fab5 (PDB 7TE6) and in the cryo-EM models; the light chain is in the crystal structure of GluN1b-GluN2B ATD-Fab5 (PDB 7TE6) and in the cryo-EM models; mouse immunoglobulin-gamma; source: hybridoma cell culture supernatant, purified (rProtein-A Sepharose)
B3: Fab2, antigen-binding fragment of IgG2 (Fab, V domains shown)
VH: B1 VH
VL: B1 VL
notes: heavy chain of the crystal structure of Fab2 (PDB 7TE4); as the Fab part of the heavy chain of m1; light chain of the crystal structure of Fab2 (PDB 7TE4); as the light chain of m1; source: papain proteolysis of purified IgG2, Fc removed on rProtein-A Sepharose

Columns and labels:
[1] = molecular target: T1, purified intact rat GluN1a-GluN2B NMDA receptor (Rattus norvegicus, UniProt P35439;Q00960); test: ELISA; 96-well MaxiSorp plates covered by the GluN1a-GluN2B NMDAR proteins, in the presence of 0.005% LMNG (methods; 0.01% in the results); state of the IgG not told
T1 construct: rat GluN1a (GluN1-1a splice variant, without the exon 5-encoded motif); called intact; rat GluN2B; the immunogen and the ELISA antigen

[2] = molecular target: T2, intact GluN1b-GluN2B NMDA receptor (Rattus norvegicus, strain); test: cryo-EM structure; receptor mixed with Fab at 1:3 (w:w), purified on Superose 6; 1 mM glycine and 1 mM glutamate; 0.002% LMNG, 0.1% digitonin; conditions: both partners purified
T2 construct: called intact; density seen for ATD, LBD and TMD; rat GluN2B; heterotetramer; Also used here for the functional rows on receptors expressed in oocytes or HEK293 cells from wild-type rat cRNA or cDNA; also called GluN1-1b-GluN2B; GluN1b-2B; source: Sf9 insect cells (EarlyBac), solubilised in 0.5% LMNG, purified (Strep-Tactin Sepharose, Superose 6); copies: 2 + 2

Binder | binding result [1] | stoichiometry N [2]
B1 | binds | –
B2 | binds | –
B3 | – | 2 Fab2 per heterotetrameric channel
